The record followed here is paper PMC10397247.

One experiment concerns the target T1, 4H2343-AA.
T1 chain: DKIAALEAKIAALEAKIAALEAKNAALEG
As to the kind of experiment: two-hybrid library CCmax.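 Also: natural log of median RNA to DNA barcode read ratio; higher means stronger binding.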 The note with it: mean of both orientations.

The next experiment concerns the target T2, 4H452-AA.
T2 chain: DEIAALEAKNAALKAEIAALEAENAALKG
As to the kind of experiment: two-hybrid library CCmax.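 Also: natural log of median RNA to DNA barcode read ratio; higher means stronger binding.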 The following applies: mean of both orientations.

The target in another experiment is T3, 4H3001-AA.
T3 chain: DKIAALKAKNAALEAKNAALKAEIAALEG
As to the kind of experiment: two-hybrid library CCmax.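 Also: natural log of median RNA to DNA barcode read ratio; higher means stronger binding.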 The note with it: mean of both orientations.

The target of the next experiment is T4, 4H249-AA.
T4 chain: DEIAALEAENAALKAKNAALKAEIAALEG
As to the kind of experiment: two-hybrid library CCmax.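 Also: natural log of median RNA to DNA barcode read ratio; higher means stronger binding.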 The note with it: mean of both orientations.

Another experiment has as its target T5, 4H2330-AA.
T5 chain: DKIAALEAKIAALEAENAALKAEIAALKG
As to the kind of experiment: two-hybrid library CCmax.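 Also: natural log of median RNA to DNA barcode read ratio; higher means stronger binding.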 The note with it: mean of both orientations.

The target in a further experiment is T6, 4H2165-AA.
T6 chain: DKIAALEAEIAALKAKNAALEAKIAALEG
As to the kind of experiment: two-hybrid library CCmax.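 Also: natural log of median RNA to DNA barcode read ratio; higher means stronger binding.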 The following applies: mean of both orientations.

Another experiment addresses T7, 4H3073-AA.
T7 chain: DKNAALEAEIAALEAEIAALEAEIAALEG
As to the kind of experiment: two-hybrid library CCmax. The following applies: mean of both orientations.

A further experiment concerns the target T8, 4H1650-AA.
T8 chain: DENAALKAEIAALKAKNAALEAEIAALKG
As to the kind of experiment: two-hybrid library CCmax.

The target in another experiment is T9, 4H_APH.
T9 chain: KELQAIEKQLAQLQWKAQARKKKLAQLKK
As to the kind of experiment: two-hybrid library CCmax. The following applies: mean of both orientations.

Another experiment concerns the target T10, 4H175-AA.
T10 chain: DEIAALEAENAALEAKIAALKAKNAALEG
As to the kind of experiment: two-hybrid library CCmax. The note with it: mean of both orientations.

Another experiment concerns the target T11, 4H56-AA.
T11 chain: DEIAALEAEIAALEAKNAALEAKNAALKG
As to the kind of experiment: two-hybrid library CCmax. The note with it: mean of both orientations.

In the next experiment the target is 4H_GCN4. As to the kind of experiment: two-hybrid library CCmax.
The next experiment addresses T12, 4H2592-AA.
T12 chain: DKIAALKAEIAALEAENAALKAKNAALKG
As to the kind of experiment: two-hybrid library CCmax. The note with it: mean of both orientations.

Another experiment has as its target T13, 4H2124-AA.
T13 chain: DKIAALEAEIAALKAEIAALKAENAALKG
As to the kind of experiment: two-hybrid library CCmax. The note with it: mean of both orientations.

For another experiment, the target named is T14, 4H3015-AA.
T14 chain: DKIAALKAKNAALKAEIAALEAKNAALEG
As to the kind of experiment: two-hybrid library CCmax. The following applies: mean of both orientations.

In a further experiment the target is T15, 4H1828-AA.
T15 chain: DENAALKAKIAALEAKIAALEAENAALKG
As to the kind of experiment: two-hybrid library CCmax. The note with it: mean of both orientations.

A further experiment has as its target T16, 4H1930-AA.
T16 chain: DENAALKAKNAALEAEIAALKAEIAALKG
As to the kind of experiment: two-hybrid library CCmax. The note with it: mean of both orientations.

For the next experiment, the target named is T17, 4H1821-AA.
T17 chain: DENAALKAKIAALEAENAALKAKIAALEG
As to the kind of experiment: two-hybrid library CCmax.

A further experiment concerns the target T18, 4H406-AA.
T18 chain: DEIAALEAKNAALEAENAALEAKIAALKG
As to the kind of experiment: two-hybrid library CCmax. The following applies: mean of both orientations.

In the next experiment the target is T19, 4H2732-AA.
T19 chain: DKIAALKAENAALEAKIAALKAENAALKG
As to the kind of experiment: two-hybrid library CCmax. The note with it: mean of both orientations.

The target in a further experiment is T20, 4H3438-AA.
T20 chain: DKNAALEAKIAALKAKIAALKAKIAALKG
As to the kind of experiment: two-hybrid library CCmax.

The next experiment deals with T21, 4H2253-AA.
T21 chain: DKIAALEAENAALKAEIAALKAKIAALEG
As to the kind of experiment: two-hybrid library CCmax. The following applies: mean of both orientations.

The next experiment addresses T22, 4H347-AA.
T22 chain: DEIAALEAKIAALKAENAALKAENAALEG
As to the kind of experiment: two-hybrid library CCmax. The following applies: mean of both orientations.

Another experiment addresses T23, 4H2931-AA.
T23 chain: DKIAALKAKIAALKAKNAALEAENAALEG
As to the kind of experiment: two-hybrid library CCmax. The following applies: mean of both orientations.

A further experiment concerns the target T24, 4H2774-AA.
T24 chain: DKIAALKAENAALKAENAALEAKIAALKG
As to the kind of experiment: two-hybrid library CCmax. The note with it: mean of both orientations.

The target of the next experiment is T25, 4H1765-AA.
T25 chain: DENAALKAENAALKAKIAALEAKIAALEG
As to the kind of experiment: two-hybrid library CCmax. The note with it: mean of both orientations.

A further experiment concerns the target GCN2_T. As to the kind of experiment: two-hybrid library CCmax.
In another experiment the target is T26, 4H2466-AA.
T26 chain: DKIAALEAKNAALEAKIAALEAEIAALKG
As to the kind of experiment: two-hybrid library CCmax. The note with it: mean of both orientations.

The target in a further experiment is T27, 4H_BCR.
T27 chain: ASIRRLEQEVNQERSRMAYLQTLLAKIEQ
As to the kind of experiment: two-hybrid library CCmax. The following applies: mean of both orientations.

The target in a further experiment is T28, P7A-bS.
T28 chain: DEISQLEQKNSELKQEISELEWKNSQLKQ
As to the kind of experiment: two-hybrid library CCNG1.

The next experiment has as its target T29, P8A-bS.
T29 chain: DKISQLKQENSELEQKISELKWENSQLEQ
As to the kind of experiment: two-hybrid library CCNG1.

Another experiment has as its target T30, P5A-bS.
T30 chain: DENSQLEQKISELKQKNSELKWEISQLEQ
As to the kind of experiment: two-hybrid library CCNG1.

The target of the next experiment is T31, P2A-bS.
T31 chain: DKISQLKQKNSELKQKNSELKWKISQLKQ
As to the kind of experiment: two-hybrid library CCNG1.

The target in a further experiment is T32, P11A-bS.
T32 chain: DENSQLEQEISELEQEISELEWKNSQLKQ
As to the kind of experiment: two-hybrid library CCNG1.

Another experiment has as its target T33, P12A-bS.
T33 chain: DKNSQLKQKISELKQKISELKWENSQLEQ
As to the kind of experiment: two-hybrid library CCNG1.

The target in the next experiment is T34, P4A-bS.
T34 chain: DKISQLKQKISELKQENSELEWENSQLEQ
As to the kind of experiment: two-hybrid library CCNG1.

The next experiment deals with T35, P6A-bS.
T35 chain: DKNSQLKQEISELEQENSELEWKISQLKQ
As to the kind of experiment: two-hybrid library CCNG1.

Another experiment has as its target T36, P3A-bS.
T36 chain: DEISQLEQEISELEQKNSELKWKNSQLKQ
As to the kind of experiment: two-hybrid library CCNG1.

The target in the next experiment is T37, P1A-bS.
T37 chain: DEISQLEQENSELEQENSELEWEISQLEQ
As to the kind of experiment: two-hybrid library CCNG1.

The target of another experiment is T38, P9A-bS.
T38 chain: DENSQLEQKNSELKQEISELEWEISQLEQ
As to the kind of experiment: two-hybrid library CCNG1.

A further experiment deals with T39, P2-AA.
T39 chain: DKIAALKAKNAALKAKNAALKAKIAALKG
As to the kind of experiment: two-hybrid library CCmax. The following applies: mean of both orientations.

Another experiment concerns the target T40, P2-AA-1HAA-S.
T40 chain: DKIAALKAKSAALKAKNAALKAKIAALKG
As to the kind of experiment: two-hybrid library CCmax. The note with it: mean of both orientations.

Another experiment addresses T41, P2-AA-1HAA-K.
T41 chain: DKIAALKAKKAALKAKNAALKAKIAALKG
As to the kind of experiment: two-hybrid library CCmax. The following applies: mean of both orientations.

The next experiment deals with T42, P2-AA-1HAA-R.
T42 chain: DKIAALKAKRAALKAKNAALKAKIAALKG
As to the kind of experiment: two-hybrid library CCmax. The note with it: mean of both orientations.

The next experiment deals with T43, P2-AA-1HAA-E.
T43 chain: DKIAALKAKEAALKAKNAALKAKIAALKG
As to the kind of experiment: two-hybrid library CCmax. The note with it: mean of both orientations.

The next experiment has as its target T44, P2-AA-1HAA-T.
T44 chain: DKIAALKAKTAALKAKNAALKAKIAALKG
As to the kind of experiment: two-hybrid library CCmax. The following applies: mean of both orientations.

4H_GCN4, sequence (chain, as listed by the source): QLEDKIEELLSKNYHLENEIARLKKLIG

B1: 4H1650-AA (peptide)
chain: DENAALKAEIAALKAKNAALEAEIAALKG
On to B1, for which the interaction score is -1.44 with 4H2343-AA; -1.34 with 4H452-AA; -1.67 in the experiment with 4H3001-AA; -1.71 with 4H249-AA; -1.54 with 4H2330-AA; -1.3 with 4H2165-AA. In addition, the interaction score is -1.16 in the experiment with 4H3073-AA; 1.93 with 4H1650-AA; -1.42 with 4H_APH; -1.43 with 4H175-AA; -1.74 with 4H56-AA; -1.9 with 4H_GCN4. For the same molecule, the interaction score with 4H2592-AA is -1.61; in the experiment with 4H2124-AA, -1.42; with 4H3015-AA it was -1.53; with 4H1828-AA, -1.48; with 4H1930-AA, -1.42; with 4H1821-AA, -1.25. The interaction score with 4H406-AA was -1.61; with 4H2732-AA it was -0.897; with 4H3438-AA, -1.13; in the experiment with 4H2253-AA, -1.47; with 4H347-AA, -2.36; in the experiment with 4H2931-AA it was -1.59. In addition, the interaction score with 4H2774-AA was -1.48; with 4H1765-AA, -1.53; in the experiment with GCN2_T it was -0.999; with 4H2466-AA it was -1.67; with 4H_BCR, -1.36.

B2: P10A-bS (peptide)
chain: DKNSQLKQENSELEQKISELKWKISQLKQ
Take B2: the interaction score with P7A-bS was -0.464; in the experiment with P8A-bS it was -0.395; with P5A-bS it was -1.76; with P2A-bS, -0.0157; in the experiment with P11A-bS, -0.138; with P12A-bS, -0.0445. Further, the interaction score in the experiment with P4A-bS was -0.106; with P6A-bS, -1.53; with P3A-bS it was -0.693; in the experiment with P1A-bS it was -2.5.

B3: P12A-bS (peptide)
chain: DKNSQLKQKISELKQKISELKWENSQLEQ
With B3, the interaction score in the experiment with P9A-bS was -0.676; in the experiment with P7A-bS, -0.873; with P8A-bS, -1.07; with P5A-bS, -2.21; in the experiment with P2A-bS it was -1.69; in the experiment with P12A-bS, -1.48. For the same molecule, the interaction score is -1.12 with P4A-bS, -0.87 with P6A-bS, -2.43 in the experiment with P3A-bS and -0.648 in the experiment with P1A-bS.

B4: P1-AA-1HAA-E (peptide)
chain: DEIAALEAEEAALEAENAALEAEIAALEG
B4: the interaction score in the experiment with P2-AA is 1.82; with P2-AA-1HAA-S, 1.57; in the experiment with P2-AA-1HAA-K it was 1.57; with P2-AA-1HAA-R it was 1.9; in the experiment with P2-AA-1HAA-E, 0.691; with P2-AA-1HAA-T, 1.66.

B5: P11A-bS (peptide)
chain: DENSQLEQEISELEQEISELEWKNSQLKQ
For B5, the interaction score with P9A-bS was -0.134; with P7A-bS it was -1.25; with P8A-bS it was 0.714; with P5A-bS, -0.458; with P2A-bS it was -0.288; in the experiment with P11A-bS, -0.865. The interaction score was 2.41 with P12A-bS; 0.142 with P4A-bS; 0.727 in the experiment with P6A-bS; -0.458 with P3A-bS; 0.728 with P1A-bS.
